In US20070218504A1, “HUMAN LEPTIN-DERIVED POLYPEPTIDES AND USES THEREOF” (UNIVERSITY OF PITTSBURGH, priority 2006, published 2007):

Assays:
human OB-Rb = target: T1, human OB-Rb (Homo sapiens, UniProt P48357); experiment: 125I-labeled mouse leptin pre-incubated with human CRP, binding to HEK293 cells stably transfected with human OB-Rb; conditions: in the presence of 2 ng/ml mouse leptin
T1 construct: expressed in transfected cells
T1 sequence (P48357 22-1165): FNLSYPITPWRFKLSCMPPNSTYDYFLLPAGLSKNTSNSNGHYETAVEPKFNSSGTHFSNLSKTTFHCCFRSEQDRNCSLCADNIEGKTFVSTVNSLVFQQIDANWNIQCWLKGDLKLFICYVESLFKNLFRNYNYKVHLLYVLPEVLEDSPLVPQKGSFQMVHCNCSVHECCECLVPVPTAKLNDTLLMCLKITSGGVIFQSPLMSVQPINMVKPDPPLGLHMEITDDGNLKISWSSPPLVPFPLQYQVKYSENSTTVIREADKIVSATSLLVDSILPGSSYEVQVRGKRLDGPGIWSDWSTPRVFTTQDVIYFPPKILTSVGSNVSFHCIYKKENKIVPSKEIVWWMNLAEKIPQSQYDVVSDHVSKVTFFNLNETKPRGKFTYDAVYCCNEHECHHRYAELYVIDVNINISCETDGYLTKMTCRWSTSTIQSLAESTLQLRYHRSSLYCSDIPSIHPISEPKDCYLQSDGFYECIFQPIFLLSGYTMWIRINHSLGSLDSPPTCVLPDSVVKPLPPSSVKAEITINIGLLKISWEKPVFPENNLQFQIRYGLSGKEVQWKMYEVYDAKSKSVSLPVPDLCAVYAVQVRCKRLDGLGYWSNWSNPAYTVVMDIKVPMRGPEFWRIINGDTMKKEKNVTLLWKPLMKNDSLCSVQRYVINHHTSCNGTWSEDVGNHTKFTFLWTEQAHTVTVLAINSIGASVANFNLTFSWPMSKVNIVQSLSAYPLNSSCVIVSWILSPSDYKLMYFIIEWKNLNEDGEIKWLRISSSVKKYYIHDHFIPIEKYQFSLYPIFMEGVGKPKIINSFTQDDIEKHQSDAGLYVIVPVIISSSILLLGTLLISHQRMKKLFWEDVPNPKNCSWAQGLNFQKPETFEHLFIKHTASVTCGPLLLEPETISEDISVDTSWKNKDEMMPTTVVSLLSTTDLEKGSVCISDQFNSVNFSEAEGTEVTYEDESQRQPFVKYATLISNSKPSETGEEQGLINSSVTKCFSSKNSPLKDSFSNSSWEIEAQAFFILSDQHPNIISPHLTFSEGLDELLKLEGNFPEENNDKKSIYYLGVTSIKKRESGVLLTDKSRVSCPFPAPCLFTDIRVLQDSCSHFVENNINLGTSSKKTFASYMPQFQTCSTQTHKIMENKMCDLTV
Method: FIG. 4B. Effects of human CRP on mouse leptin. […] The dashed line at the bottom right of the graph indicates ^125I-leptin bound when two thousand fold excess of non-labeled mouse leptin is added.
To examine if CRP binding interferes with the stability of human leptin to bind to its receptors, a HEK293 cell line stably transfected with the long-form human leptin receptor, OB—Rb, was used (17). Human leptin was iodinated with Na^125I using the lodogen method. Briefly, 15 μg of recombinant human leptin in 100 mM Phosphate buffer pH 7.5 were incubated with 1 mCi of carrier-free Na^125I (2200 Ci/mmol) in a glass tube containing 50 μg Iodogen. After 10-minute incubation at room temperature, the reaction was stopped with 100 μl 0.1% trifluoroacetic acid (TFA). The reaction mixture was immediately purified by reverse-phase HPLC. The separation employed a 5-minute isocratic step at 20% eluant B in A, followed by two consecutive 30 min linear gradients from 20 to 50%, then from 50 to 60% eluant B in A (where eluant A is water containing 0.1% TFA and eluant B is acetonitrile containing 0.1% TFA) at a flow rate of 1.5 ml/min. The ^125I-labeled leptin (˜2 ng/ml) was pre-incubated with various concentrations of human CRP in 1 ml of μ-MEM for 1 hour before added to the OBR-expressing HEK293 cells. […]

[1] = tested on: leptin signaling in primary hypothalamic neurons; experiment: Phospho-STAT3 and PI3-kinase assays of leptin signaling in primary hypothalamic neurons; type: cell-based, rat
Method: To determine if the interaction between CRP and leptin dampens the cellular actions of leptin, the ability of leptin to stimulate tyrosine phosphorylation of STAT3 and PI3-kinase activity was assessed in the presence of CRP in vitro. HEK293 cells over-expressing OB-Rb were serum starved for 2 hours before addition of leptin and CRP (CHEMICON or EMD Biosciences). Leptin, in the presence or absence of CRP, was pre-incubated in μ-MEM (with additional 1 mM Ca^2+) for 30 minutes at 37° C. before being applied to the cells. After a 30-minute incubation with leptin, the cells were harvested in lysis buffer (18). The resultant protein extract was subjected to a Western blot analysis using an anti-phospho-STAT3 specific antibody (Cell Signaling, Beverly, Mass.). For studies involving primary hypothalamic neurons, the hypothalamus from rats was surgically isolated immediately after euthanasia, and placed in the DMEM for incubation with leptin in the presence or absence of CRP.

ob/ob mice = experiment: Intracerebralventricular (i.c.v.) injection of human CRP and leptin in ob/ob mice, food intake and body weight; type: in vivo, mouse; conditions: ob/ob mice

Substance: human CRP: human C-reactive protein, purified preparation from a commercial source
- IC50 of human CRP for reducing 125I-labeled mouse leptin binding to receptor (human OB-Rb): greater than 64 μg/ml
- effect on leptin signaling (phospho-STAT3, PI3-kinase) [1]: specifically inhibited leptin signaling
- effect of i.c.v. human CRP on satiety and weight-reducing effects induced by mouse leptin (ob/ob mice): did not influence
